Measurements as given in the supplement of paper PMC7125110.
± gives the standard error. Fewer inactive variants are shown than the library holds.

B1: glmS ribozyme (parent)
chain: AUAAAAGCGCCAGAACUACAGAAAUGUAGUUGACGAGGAGGAGGUUUAUCGAAUUUUCGGCGGAUGCCUCCAAA

How the values were obtained:
Conditions in all cases: with glucosamine-6-phosphate
[1] = variants of: B1; assay: self-cleavage kobs at 40 uM GlcN6P; higher = faster cleavage; RNA array
Procedure, shortened: (§1)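 Glucosamine-6-phosphate (40 μM to 10 mM) in HEPES/KCl/Mg(OAc)2 buffer was flowed over sequenced MiSeq chips, and tiles were imaged over ~14 h. Barcoded ribozyme variants there had been transcribed in situ by E. coli RNA polymerase and were tracked through a hybridised Cy3 probe at 37 °C. One- or two-exponential decay fits to per-tile medians, normalised to baseline and to non-cleaving reference variants, gave kobs. kcat and KM came from weighted Michaelis–Menten fits across concentrations.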

[2] = variants of: B1; assay: self-cleavage kobs at 640 uM GlcN6P; higher = faster cleavage; RNA array
Procedure, shortened: as §1

[3] = variants of: B1; assay: self-cleavage kobs at 2500 uM GlcN6P; higher = faster cleavage; RNA array
Procedure, shortened: as §1

[4] = variants of: B1; assay: self-cleavage kobs at 10000 uM GlcN6P; higher = faster cleavage; RNA array
Procedure, shortened: as §1

[5] = variants of: B1; assay: self-cleavage kobs at 160 uM GlcN6P; higher = faster cleavage; RNA array
Procedure, shortened: as §1

Row | Variant | self-cleavage kobs at 40 uM GlcN6P [1] [s⁻¹] | self-cleavage kobs at 640 uM GlcN6P [2] [s⁻¹] | self-cleavage kobs at 2500 uM GlcN6P [3] [s⁻¹] | self-cleavage kobs at 10000 uM GlcN6P [4] [s⁻¹] | self-cleavage kobs at 160 uM GlcN6P [5] [s⁻¹]
1 | A53G C71G | 0.000153 ± 2e-05 | 0.000377 ± 5.8e-05 | 0.00062 ± 0.00013 |  | 
2 | U57G G59C | < 1e-05 | < 1e-05 |  | < 1e-05 | 
3 | A53C C68A | < 1e-05 | < 1e-05 |  |  | < 1e-05
4 | C58G G60C | < 1e-05 | < 1e-05 | < 1e-05 | < 1e-05 | < 1e-05
5 | A53G G66U C67A | 7.95e-05 ± 1.9e-05 |  |  | 0.00186 ± 0.00059 | 
6 | U57A C61U | < 1e-05 | < 1e-05 | < 1e-05 | < 1e-05 | 
7 | A52U G62A | < 1e-05 | < 1e-05 | < 1e-05 | < 1e-05 | 
8 | A53U C71U | 0.000617 ± 6e-05 | 0.00728 ± 0.0012 | 0.0165 ± 0.0031 | 0.0301 ± 0.0058 | 0.00115 ± 0.0002
9 | A53U C71G | 9.68e-05 ± 1.3e-05 | 0.000283 ± 4.7e-05 | 0.000247 ± 5.4e-05 | 0.00158 ± 0.00036 | 0.000213 ± 7e-05
10 | A53U U55C | 0.000338 ± 7.3e-05 | 0.00434 ± 0.00089 | 0.00602 ± 0.0019 | 0.0266 ± 0.0065 | 0.00118 ± 0.0004
11 | C58U U65A | < 1e-05 |  |  |  | < 1e-05
12 | U55C C61U C68U | < 1e-05 |  |  | < 1e-05 | 
13 | G60U U69G | < 1e-05 | < 1e-05 |  | < 1e-05 | 
14 | U56G G59A C68A | < 1e-05 | < 1e-05 |  | < 1e-05 | 
15 | G60U C70A | < 1e-05 | < 1e-05 |  | < 1e-05 | < 1e-05
16 | U54G A64C C67A C70U | 0.000151 ± 5.2e-05 | 0.000556 ± 0.00017 | 0.000241 ± 0.0001 | 4.58e-05 ± 1.8e-05 | 0.000348 ± 0.00013
17 | U55A C70U | 0.00118 ± 0.00012 | 0.00644 ± 0.0011 |  |  | 0.00271 ± 0.00065
18 | A53G C61G | < 1e-05 |  |  |  | 
19 | A53G C61G C70U | < 1e-05 |  |  | < 1e-05 | 
20 | G60C A64G | < 1e-05 | < 1e-05 | < 1e-05 | < 1e-05 | < 1e-05

Row | Variant | self-cleavage kobs at 40 uM GlcN6P [1] [s⁻¹] | self-cleavage kobs at 640 uM GlcN6P [2] [s⁻¹] | self-cleavage kobs at 2500 uM GlcN6P [3] [s⁻¹] | self-cleavage kobs at 10000 uM GlcN6P [4] [s⁻¹] | self-cleavage kobs at 160 uM GlcN6P [5] [s⁻¹]
21 | G60C A64U | < 1e-05 | < 1e-05 | < 1e-05 | < 1e-05 | < 1e-05
22 | U54A C61U C71G | < 1e-05 |  |  |  | 
23 | C58G A64C | < 1e-05 |  |  |  | < 1e-05
24 | C58G A64U | < 1e-05 | < 1e-05 | < 1e-05 | < 1e-05 | 
25 | C61A G66C | < 1e-05 |  | < 1e-05 | < 1e-05 | 
26 | U56C G60U | < 1e-05 | < 1e-05 | < 1e-05 | < 1e-05 | < 1e-05
27 | U56G U65A | 3.91e-05 ± 7.3e-06 | 0.000245 ± 6.8e-05 | 0.000827 ± 0.0002 | 0.0026 ± 0.0003 | 
28 | C58G A64G C68A | 4.76e-05 ± 1.8e-05 | 0.00061 ± 0.00029 | 5.81e-05 ± 2.1e-05 |  | 
29 | G60U C68G | < 1e-05 | < 1e-05 | < 1e-05 | < 1e-05 | < 1e-05
30 | G60U C67G | < 1e-05 | < 1e-05 | < 1e-05 | < 1e-05 | < 1e-05
31 | U54G C70U | 0.00112 ± 0.00013 | 0.00544 ± 0.001 |  |  | 0.000836 ± 0.00011
32 | U56G G63U | < 1e-05 | < 1e-05 |  | < 1e-05 | < 1e-05
33 | U55G U56G G62C | < 1e-05 |  |  | < 1e-05 | 
34 | U54C U65A | 6.51e-05 ± 8.4e-06 | 0.00147 ± 0.00042 |  | 0.00332 ± 0.00031 | 
35 | C58G C61U | < 1e-05 |  |  |  | 
36 | G60C C61A | < 1e-05 | < 1e-05 |  | < 1e-05 | < 1e-05
37 | U57G C70G | 3.7e-05 ± 9.8e-06 | 0.000103 ± 1.5e-05 | 8.84e-05 ± 1.5e-05 | 2.33e-05 ± 1e-05 | 0.00016 ± 3e-05
38 | A53U G62C | < 1e-05 | < 1e-05 | < 1e-05 | < 1e-05 | 
39 | U55C G62A | < 1e-05 | < 1e-05 | < 1e-05 | < 1e-05 | < 1e-05
